Test results: patent WO2020241660A1 (dated 2020)

Target: T1, peptide consisting of amino acid residues 44-72 of the human eIF5A protein (human, UniProt P63241 44-72)
T1 construct: range 44-72; also called human eIF5A (44-72) peptide
Assay: ELISA, screening of hybridoma antibodies on the peptide

T1 sequence (P63241 44-72 limits assumed): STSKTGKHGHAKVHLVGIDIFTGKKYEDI

B1: anti-ORAIP antibody (clone YSP5-45-36) (antibody, V domains shown)
VH: EVKLVESGGGLVQPGGSLRLSCATSGFTFTDYYMSWARQPPGKALEWLGFIRNKANGYTTEYSASVKGRFTISRDNSLGILYLQMNTLRPEDSATYYCARNYYGTSFSWFAYWGQGTLVTVSA
VL: MTQTPLSLSVSLGDQASISCRSSQSIVHFNGNTYLEWYLQKPGQSPKLLIYKVSSRFSGVPDRFSGSGSGTDFTLKISRVEAEDLGVYYCFQGSHVPPTFGGGTKLEIK
notes: Mouse monoclonal antibody from a hybridoma (mouse IgG H and L chain primers were used for cloning); also called neutralizing antibody against secretory eIF5A
  binding result: binds
